{"source": "patent US20190359693A1", "about": "(Janssen / Centocor, published 2019)", "assay_in_all_cases": "cell-based or functional assay", "key": {"[1]": {"target": "HA of H3N2 A/HK/1/68 (L331I, E443K) (influenza A virus)"}, "[2]": {"target": "HA of H3N2 A/HK/1/68 (R201G, L331I, E443K) (influenza A virus)"}, "[3]": {"target": "HA of H3N2 A/HK/1/68 (N85, E443K) (influenza A virus)"}, "[4]": {"target": "HA of H3N2 A/HK/1/68 (E443K) (influenza A virus)"}, "[5]": {"target": "HA of H3N2 A/HK/1/68 (D375N, I395V) (influenza A virus)"}, "[6]": {"target": "HA of H3N2 A/HK/1/68 (G379R) (influenza A virus)"}, "[7]": {"target": "HA of H3N? A/Env/MPJ193/09 (influenza A virus)"}, "[8]": {"target": "HA of H3N2 A/HK/1/68 (I395V) (influenza A virus)"}, "[9]": {"target": "HA of H3N? A/Env/MPJ193/09 (influenza A virus)", "remark": "listed apart in the source"}}, "note": "Read-outs that look alike come from different tables or passages of the source."}
{"binder": "SD1036 (VHH, llama sdAb) VHH: EVQLVESGGGLVQAGGSLKLSCAASGRTYAMGWFRQAPGKEREFVAHINALGTRTYYSDSVKGRFTISRDNAKNTEYLEMNNLKPEDTAVYYCTAQGQWRAAPVAVAAEYEFWGQGTQVTVSS", "values": [{"measurement": "VNA titer", "setting": "[1]", "result": "> 1000", "unit": "nM"}, {"measurement": "VNA titer", "setting": "[2]", "result": "> 1000", "unit": "nM"}, {"measurement": "VNA titer", "setting": "[3]", "result": "> 1000", "unit": "nM"}, {"measurement": "VNA titer", "setting": "[4]", "result": "> 1000", "unit": "nM"}, {"measurement": "VNA titer", "setting": "[5]", "result": "> 1000", "unit": "nM"}, {"measurement": "VNA titer", "setting": "[6]", "result": "> 1000", "unit": "nM"}, {"measurement": "VNA titer", "setting": "[7]", "result": 41, "unit": "nM"}, {"measurement": "VNA titer", "setting": "[8]", "result": "> 1000", "unit": "nM"}]}
{"binder": "SD1046 (VHH) VHH: EVQLVESGGGLVQAGDSLRISCAASGRTLSIYSMGWFRQAPGKEREFVATIGWNSGRTFYPDSLKGRFTISRDNARNTLYLQMNNLRPEDTAVYYCAAAKGPLRLSSQADYWGQGTQVTVSS", "values": [{"measurement": "VNA titer", "setting": "[1]", "result": 202, "unit": "nM"}, {"measurement": "VNA titer", "setting": "[2]", "result": 339, "unit": "nM"}, {"measurement": "VNA titer", "setting": "[3]", "result": 202, "unit": "nM"}, {"measurement": "VNA titer", "setting": "[4]", "result": 202, "unit": "nM"}, {"measurement": "VNA titer", "setting": "[5]", "result": "> 1000", "unit": "nM"}, {"measurement": "VNA titer", "setting": "[6]", "result": 571, "unit": "nM"}, {"measurement": "VNA titer", "setting": "[8]", "result": "> 1000", "unit": "nM"}]}
{"binder": "SD1038 (VHH, llama sdAb) VHH: EVQLVESGGGLVQPGGSLRLSCAVSISIFDIYAMDWYRQAPGKQRDLVATSFRDGSTNYADSVKGRFTISRDNAKNTLYLQMNSLKPEDTAVYLCHVSLYRDPLGVAGGMGVYWGKGALVTVSS", "values": [{"measurement": "VNA titer", "setting": "[9]", "result": 185, "unit": "nM"}]}
